Experimental data: paper PMC7040040

Molecular target: T1, pE3-Aβ(3–18) monomer
T1 chain: EFRHDSGYEVHHQKLV
Test: SPR (Biacore)
Conditions: chain shown with the change

B1: humanized PBD-C06 (CDR-grafted IgG1:kappa version) VL:F41L (protein)
chain 1: QVQLVQSGAEVKKSGASVKVSCKASGYSFTGYTMNWVRQAPGQGLEWMGLINPYNGVTRYNQKFKGRVTLIRDTSTTTVYMELTSLTSEDTAVYYCAREAKREWDETYWGQGTLVTVSS
chain 2: DVVMTQSPLSLPVTLGQPASISCKSSQSLLYSDGKTYLNWLQQRPGQSPRRLIYLVSKLDSGVPDRFSGSGSGTDFTLKISRVEAEDVGVYYCVQGTHFPFTFGGGTKVEIK
Kd: 162 nM
